For assay [1], the target named is rHuman IGF-1 sR, (IGF-1 sR), CF (Cat# 391-GR) (human) (UniProt P08069). Put plainly: Multispot ECL; Fab 4.375 nM.
In assay [2] the target is rHuman CD44/Fc Chimera, CF (Cat# 3660-CD) (human) (UniProt P16070). As to the kind of experiment: Multispot ECL; Fab 4.375 nM.
Assay [3] concerns the target rHuman Notch-1/Fc Chimera, CF (Cat# 3647-TK) (human) (UniProt P46531). Put plainly: Multispot ECL; Fab 4.375 nM.
Assay [4] concerns the target rHuman ErbB2/Fc Chimera, CF (Cat# 1129-ER) (human) (UniProt P04626). As to the kind of experiment: Multispot ECL; Fab 4.375 nM.
For assay [5], the target named is rHuman P-Cadherin/Fc Chimera, CF (Cat# 861-PC) (human) (UniProt P22223). Put plainly: Multispot ECL; Fab 4.375 nM.
In assay [6] the target is rHuman IGF-1 sR, (IGF-1 sR), CF (Cat# 391-GR) (human) (UniProt P08069). As to the kind of experiment: Multispot ECL; Fab 70 nM.
The target in assay [7] is rHuman CD44/Fc Chimera, CF (Cat# 3660-CD) (human) (UniProt P16070). As to the kind of experiment: Multispot ECL; Fab 70 nM.
The target in assay [8] is rHuman Notch-1/Fc Chimera, CF (Cat# 3647-TK) (human) (UniProt P46531). Put plainly: Multispot ECL; Fab 70 nM.
Assay [9] deals with rHuman ErbB2/Fc Chimera, CF (Cat# 1129-ER) (human) (UniProt P04626). As to the kind of experiment: Multispot ECL; Fab 70 nM.
Assay [10] deals with rHuman P-Cadherin/Fc Chimera, CF (Cat# 861-PC) (human) (UniProt P22223). As to the kind of experiment: Multispot ECL; Fab 70 nM.
Assay [11] addresses rHuman IGF-1 sR, (IGF-1 sR), CF (Cat# 391-GR) (human) (UniProt P08069). As to the kind of experiment: Multispot ECL; Fab 17.5 nM.
The target in assay [12] is rHuman CD44/Fc Chimera, CF (Cat# 3660-CD) (human) (UniProt P16070). Put plainly: Multispot ECL; Fab 17.5 nM.
In assay [13] the target is rHuman Notch-1/Fc Chimera, CF (Cat# 3647-TK) (human) (UniProt P46531). As to the kind of experiment: Multispot ECL; Fab 17.5 nM.
Assay [14] addresses rHuman ErbB2/Fc Chimera, CF (Cat# 1129-ER) (human) (UniProt P04626). As to the kind of experiment: Multispot ECL; Fab 17.5 nM.
Assay [15] concerns the target rHuman P-Cadherin/Fc Chimera, CF (Cat# 861-PC) (human) (UniProt P22223). Put plainly: Multispot ECL; Fab 17.5 nM.
Assay [16] concerns the target rHuman IGF-1 sR, (IGF-1 sR), CF (Cat# 391-GR) (human) (UniProt P08069). Put plainly: Multispot ECL; Fab 280 nM.
In assay [17] the target is rHuman CD44/Fc Chimera, CF (Cat# 3660-CD) (human) (UniProt P16070). As to the kind of experiment: Multispot ECL; Fab 280 nM.
Assay [18] addresses rHuman Notch-1/Fc Chimera, CF (Cat# 3647-TK) (human) (UniProt P46531). As to the kind of experiment: Multispot ECL; Fab 280 nM.
For assay [19], the target named is rHuman ErbB2/Fc Chimera, CF (Cat# 1129-ER) (human) (UniProt P04626). As to the kind of experiment: Multispot ECL; Fab 280 nM.
The target of assay [20] is rHuman P-Cadherin/Fc Chimera, CF (Cat# 861-PC) (human) (UniProt P22223). Put plainly: Multispot ECL; Fab 280 nM.
Assay [21] has as its target rHuman IGF-1 sR, (IGF-1 sR), CF (Cat# 391-GR) (human) (UniProt P08069). As to the kind of experiment: Multispot ECL; Fab 0.0192 µM.
For assay [22], the target named is rHuman HGF R/c-MET/Fc Chimera, CF (Cat# 358-MT/CF) (human) (UniProt P08581). As to the kind of experiment: Multispot ECL; Fab 0.0192 µM.
Assay [23] addresses rHuman ErbB2/Fc Chimera, CF (Cat# 1129-ER) (human) (UniProt P04626). Put plainly: Multispot ECL; Fab 0.0192 µM.
Assay [24] concerns the target rHuman IGF-1 sR, (IGF-1 sR), CF (Cat# 391-GR) (human) (UniProt P08069). Put plainly: Multispot ECL; Fab […].
Assay [25] deals with rHuman HGF R/c-MET/Fc Chimera, CF (Cat# 358-MT/CF) (human) (UniProt P08581). Put plainly: Multispot ECL; Fab […].
In assay [26] the target is rHuman ErbB2/Fc Chimera, CF (Cat# 1129-ER) (human) (UniProt P04626). Put plainly: Multispot ECL; Fab […].
Assay [27] deals with rHuman IGF-1 sR, (IGF-1 sR), CF (Cat# 391-GR) (human) (UniProt P08069). Put plainly: Multispot ECL; Fab 0.096 µM.
The target of assay [28] is rHuman HGF R/c-MET/Fc Chimera, CF (Cat# 358-MT/CF) (human) (UniProt P08581). Put plainly: Multispot ECL; Fab 0.096 µM.
Assay [29] addresses rHuman ErbB2/Fc Chimera, CF (Cat# 1129-ER) (human) (UniProt P04626). Put plainly: Multispot ECL; Fab 0.096 µM.
Assay [30] addresses rHuman IGF-1 sR, (IGF-1 sR), CF (Cat# 391-GR) (human) (UniProt P08069). Put plainly: Multispot ECL; Fab 0.07438 µM.
Assay [31] deals with rHuman HGF R/c-MET/Fc Chimera, CF (Cat# 358-MT/CF) (human) (UniProt P08581). As to the kind of experiment: Multispot ECL; Fab 0.07438 µM.
Assay [32] deals with rHuman ErbB2/Fc Chimera, CF (Cat# 1129-ER) (human) (UniProt P04626). As to the kind of experiment: Multispot ECL; Fab 0.07438 µM.
Assay [33] deals with rHuman IGF-1 sR, (IGF-1 sR), CF (Cat# 391-GR) (human) (UniProt P08069). As to the kind of experiment: Multispot ECL; Fab 0.2975 µM.
In assay [34] the target is rHuman HGF R/c-MET/Fc Chimera, CF (Cat# 358-MT/CF) (human) (UniProt P08581). As to the kind of experiment: Multispot ECL; Fab 0.2975 µM.
Assay [35] deals with rHuman ErbB2/Fc Chimera, CF (Cat# 1129-ER) (human) (UniProt P04626). As to the kind of experiment: Multispot ECL; Fab 0.2975 µM.
For assay [36], the target named is rHuman IGF-1 sR, (IGF-1 sR), CF (Cat# 391-GR) (human) (UniProt P08069). Put plainly: Multispot ECL; Fab 1.19 µM.
Assay [37] addresses rHuman HGF R/c-MET/Fc Chimera, CF (Cat# 358-MT/CF) (human) (UniProt P08581). Put plainly: Multispot ECL; Fab 1.19 µM.
Assay [38] concerns the target rHuman ErbB2/Fc Chimera, CF (Cat# 1129-ER) (human) (UniProt P04626). As to the kind of experiment: Multispot ECL; Fab 1.19 µM.
Assay [39] addresses rHuman IGF-1 sR, (IGF-1 sR), CF (Cat# 391-GR) (human) (UniProt P08069). As to the kind of experiment: Multispot ECL; Fab 0.01859 µM.
In assay [40] the target is rHuman HGF R/c-MET/Fc Chimera, CF (Cat# 358-MT/CF) (human) (UniProt P08581). As to the kind of experiment: Multispot ECL; Fab 0.01859 µM.
Assay [41] concerns the target rHuman ErbB2/Fc Chimera, CF (Cat# 1129-ER) (human) (UniProt P04626). As to the kind of experiment: Multispot ECL; Fab 0.01859 µM.
The target of assay [42] is rHuman IGF-1 sR, (IGF-1 sR), CF (Cat# 391-GR) (human) (UniProt P08069). Put plainly: Multispot ECL; Fab 0.03188 µM.
The target of assay [43] is rHuman Erythropoietin R/Fc Chimera, CF (Cat# 963-ER) (human) (UniProt P19235). As to the kind of experiment: Multispot ECL; Fab 0.03188 µM.
The target in assay [44] is rHuman Notch-1/Fc Chimera, CF (Cat# 3647-TK) (human) (UniProt P46531). Put plainly: Multispot ECL; Fab 0.03188 µM.
Assay [45] has as its target rHuman EGF R/Fc Chimera, CF (Cat# 344-ER) (human) (UniProt P00533). As to the kind of experiment: Multispot ECL; Fab 0.03188 µM.
The target of assay [46] is rHuman P-Cadherin/Fc Chimera, CF (Cat# 861-PC) (human) (UniProt P22223). Put plainly: Multispot ECL; Fab 0.03188 µM.
Assay [47] concerns the target rHuman Erythropoietin R/Fc Chimera, CF (Cat# 963-ER) (human) (UniProt P19235). Put plainly: Multispot ECL; Fab […].
Assay [48] concerns the target rHuman Notch-1/Fc Chimera, CF (Cat# 3647-TK) (human) (UniProt P46531). As to the kind of experiment: Multispot ECL; Fab […].
In assay [49] the target is rHuman EGF R/Fc Chimera, CF (Cat# 344-ER) (human) (UniProt P00533). Put plainly: Multispot ECL; Fab […].
Assay [50] has as its target rHuman P-Cadherin/Fc Chimera, CF (Cat# 861-PC) (human) (UniProt P22223). Put plainly: Multispot ECL; Fab […].
In assay [51] the target is rHuman IGF-1 sR, (IGF-1 sR), CF (Cat# 391-GR) (human) (UniProt P08069). As to the kind of experiment: Multispot ECL; Fab 0.1275 µM.
Assay [52] concerns the target rHuman Erythropoietin R/Fc Chimera, CF (Cat# 963-ER) (human) (UniProt P19235). Put plainly: Multispot ECL; Fab 0.1275 µM.
In assay [53] the target is rHuman Notch-1/Fc Chimera, CF (Cat# 3647-TK) (human) (UniProt P46531). Put plainly: Multispot ECL; Fab 0.1275 µM.
Assay [54] addresses rHuman EGF R/Fc Chimera, CF (Cat# 344-ER) (human) (UniProt P00533). As to the kind of experiment: Multispot ECL; Fab 0.1275 µM.
The target in assay [55] is rHuman P-Cadherin/Fc Chimera, CF (Cat# 861-PC) (human) (UniProt P22223). Put plainly: Multispot ECL; Fab 0.1275 µM.
For assay [56], the target named is rHuman IGF-1 sR, (IGF-1 sR), CF (Cat# 391-GR) (human) (UniProt P08069). As to the kind of experiment: Multispot ECL; Fab 0.51 µM.
Assay [57] concerns the target rHuman Erythropoietin R/Fc Chimera, CF (Cat# 963-ER) (human) (UniProt P19235). As to the kind of experiment: Multispot ECL; Fab 0.51 µM.
The target of assay [58] is rHuman Notch-1/Fc Chimera, CF (Cat# 3647-TK) (human) (UniProt P46531). As to the kind of experiment: Multispot ECL; Fab 0.51 µM.
The target of assay [59] is rHuman EGF R/Fc Chimera, CF (Cat# 344-ER) (human) (UniProt P00533). Put plainly: Multispot ECL; Fab 0.51 µM.
Assay [60] addresses rHuman P-Cadherin/Fc Chimera, CF (Cat# 861-PC) (human) (UniProt P22223). Put plainly: Multispot ECL; Fab 0.51 µM.

Chain of rHuman Erythropoietin R/Fc Chimera, CF (Cat# 963-ER) (human) (P19235 25-250, change not shown): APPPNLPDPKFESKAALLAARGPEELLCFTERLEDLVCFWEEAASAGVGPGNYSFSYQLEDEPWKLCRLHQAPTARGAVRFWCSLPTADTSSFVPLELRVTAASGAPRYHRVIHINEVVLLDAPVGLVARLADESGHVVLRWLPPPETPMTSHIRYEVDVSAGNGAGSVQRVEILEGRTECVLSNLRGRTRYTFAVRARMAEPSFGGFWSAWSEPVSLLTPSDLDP

Regarding “Fab VH1-46_IGHD2-15*01_IGHJ2*01 & L12_IGKJ1*01”, the ECL signal in [1] turned out to be 369; in [2], 424; in assay [3] it was 480; in [4] it was 384; in assay [5] it was 469; in assay [6] it was 1320. In addition, the ECL signal was 1370 in assay [7]; 1490 in assay [8]; 1360 in assay [9]; 1820 in [10]; 626 in assay [11]; 664 in assay [12]. Besides, the ECL signal came to 680 in assay [13]; 541 in assay [14]; 949 in assay [15]; 3530 in [16]; 4070 in [17]; 4380 in [18]. Moreover, the ECL signal turned out to be 3950 in assay [19] and 5400 in assay [20].
Take “Fab VH1-46_IGHD6-13*01_IGHJ4*01 & A27_IGKJ1*01”: the ECL signal worked out at 1830 in assay [21]; 1580 in assay [22]; 2310 in [23]; 8930 in assay [24]; 8000 in assay [25]; 11300 in assay [26]. The ECL signal came to 2450 in assay [27], 2330 in [28] and 3360 in assay [29].
With “Fab VH1-46_IGHD6-13*01_IGHJ4*01 & L2_IGKJ1*01”, the ECL signal in assay [30] amounted to 5800; in [31] it was 6610; in assay [32], 7550; in assay [33], 17400; in assay [34], 17400; in assay [35], 15100. The ECL signal in assay [36] was 35200; in assay [37], 45500; in [38], 38400; in assay [39], 3780; in assay [40], 4570; in assay [41], 5530.
“Fab VH4-34_IGHD7-27*01_IGHJ4*01 & L5_IGKJ1*01”: the ECL signal in [42] was 765; in assay [43], 789; in assay [44] it was 849; in [45], 694; in [46] it was 775; in assay [24], 564. Moreover, the ECL signal stood at 566 in assay [47]; 654 in assay [48]; 530 in assay [49]; 502 in assay [50]; 1040 in assay [51]; 1070 in assay [52]. For the same substance, the ECL signal was 1500 in [53]; 1060 in assay [54]; 957 in assay [55]; 2240 in assay [56]; 2620 in [57]; 2770 in assay [58]. Moreover, the ECL signal is 2360 in assay [59] and 2390 in assay [60].
